System: MS2 coat protein
Assay: apparent KD of MS2 coat protein; designed switch direction (-1 OFF switch, 1 ON switch): -1; higher = weaker reporter binding
Procedure, shortened: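 The buffer was Tris-HCl pH 7.5 with KCl, MgCl2, BSA, DTT, tRNA and Tween-20. In it, SNAP-549-labelled MS2 coat protein was titrated in doubling steps from 0.7 or 1.5 nM to 3 µM over chip-bound RNA switches transcribed by stalled E. coli RNA polymerase on Illumina chips. Apparent KD is the per-design median over clusters of curve fits to normalised fluorescence.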

[1] = input ligand: microRNA oligo, concentration not stated
[2] = Eterna round: R95, input ligand: FMN 200 uM
[3] = Eterna round: R95, input ligand: microRNA oligo, concentration not stated
[4] = Eterna round: R95, input ligand: none

Sequence	apparent KD of MS2 coat protein (input ligand: FMN 200 uM)	apparent KD of MS2 coat protein (input ligand: none)	other results
UAUAUAUAGUAAGGAUAUGUAUAUAUUAUAUAAACAGAAGGUACUGACAUGAGGAUCACCCAUGUUUUAGUGUGGGCAUGUAGA [JMF's solution 60] (Eterna round: R96, puzzle: Exclusion NG 1)			apparent KD of MS2 coat protein [1]: 53.3 nM
UAUAUAUAGUAAGGAUAUGUAUAUAUUUUAUUAACAGAAGGUACUGACAUGAGGAUCACCCAUGUUUUAGUGUGGGCAUGUAGA [JMF's solution 69] (Eterna round: R96, puzzle: Exclusion NG 1)			apparent KD of MS2 coat protein [1]: 55.2 nM
UAUAUAUAGUAAGGAUAUGUAUUAAUUUUAUAAACAGAAGGUACUGACAUGAGGAUCACCCAUGUUUUAGUGUGGGCAUGUAGA [JMF's solution 9] (Eterna round: R96, puzzle: Exclusion NG 1)			apparent KD of MS2 coat protein [1]: 72.8 nM
UAUAUAUAGUAAGGAUAUGUAUUUAGUUUAUAAACAGAAGGUACUGACAUGAGGAUCACCCAUGUUUUAGUGUGGGCAUGUAGA [JMF's solution 14] (Eterna round: R96, puzzle: Exclusion NG 1)			apparent KD of MS2 coat protein [1]: 71.2 nM
UAUAUGCAAGCGAGAUCCCACAUGAGGAUCACCCAUGUAAUAAAUAAGCACAGAAUUACUGUGAAAGCUCGUCUUAU [Winner reversed engineered 37] (Eterna round: R97, puzzle: Sensor, turn-off variant 1)	92.5 nM	105 nM	
UAUAUGUCAGGAUAUUAGUUGAGGUGGAAUUUAGCCUAUGCUGAGAAGGGACAUGAGGAUCACCCAUGUUCCUC [JR_Ex4_Sub011] (Eterna round: R97, puzzle: Exclusion 4)	93.9 nM	19.1 nM	
UAUAUGUCAGGAUAUUAGUUGUGUUCGAAUUUCACUUCUGCUGAGAAGGGACAUGAGGAUCACCCAUGUUCCUC [JR_Ex4_Sub006] (Eterna round: R97, puzzle: Exclusion 4)	17.1 nM	15.9 nM	
UAUGGUAAAGUCAGGAUAUACGUACGUCGUUCUAGGUAGAAGGGACAUGAGGAUCACCCAUGUAUGAUAGUAAA [Ex4 #35] (Eterna round: R97, puzzle: Brourd's mod of Exclusion 4)	36.1 nM	41.6 nM	
UAUGGUUAAGUCAGGAUAUACUAAUAGAAAUCUGAGUAGAAGGGACAUGAGGAUCACCCAUGUAUGGUAGUGUU [Ex4 #58] (Eterna round: R97, puzzle: Brourd's mod of Exclusion 4)	77.1 nM	55.2 nM	
UAUGUGUCAGGAUAUUAAUUAUAGGAGAAUGUGACGAUGAUUAAGAAGGGACAUGAGGAUCACCCAUGUUCAUC [JR_Ex4_Sub025] (Eterna round: R97, puzzle: Exclusion 4)	21.3 nM	19 nM	
UAUGUUAGCACAGGAUAUUGUUAUUAUUUAAUUCAAGAAGGGUGUACAUGAGGAUCACCCAUGUUAUGGUUUUAUCUUUUACAA [JR_ExcNG1_Sub013] (Eterna round: R96, puzzle: Exclusion NG 1)			apparent KD of MS2 coat protein [1]: 957 nM
UAUUAACAAGCGAGAUCCUACAUGAGGAUCACCCAUGUGCUCGUCUUAUAAGGUACUGUGACGAAAGUCACGGUACC [Eli 91 v37] (Eterna round: R97, puzzle: Sensor, turn-off variant 1)	19.5 nM	21 nM	
UAUUAACAAGUAAGAUCCUACAUGAGGAUCACCCAUGUGCUCGUCUUAUAAGGUACUGUGACGAAAGUCACGGUACC [Sensor 3, v1 - 72] (puzzle: Sensor v3, turn-off variant 1)			apparent KD of MS2 coat protein [2]: 37.6 nM; apparent KD of MS2 coat protein [3]: 46.7 nM; apparent KD of MS2 coat protein [4]: 39.4 nM
UAUUAAUGCAAGGAUAUGCUAUUAAUUUAUUUUGCAGAAGGUGCAACAUGAGGAUCACCCAUGUUGGAGGGUAU [JR_E6_Sub028] (puzzle: Exclusion 6)			apparent KD of MS2 coat protein [3]: 19.3 nM
UAUUACUCAGGAUAUAUGAUGUGAAACAUGAGGAUCACCCAUGUAAUAUUAUGGAUGUAAAUAGAAGGGAGAUUUU [Mat - Exclusion 5 - JL mod - D18] (puzzle: Exclusion 5)			apparent KD of MS2 coat protein [2]: 51.8 nM; apparent KD of MS2 coat protein [3]: 68.4 nM; apparent KD of MS2 coat protein [4]: 54.8 nM
UAUUAGCAAGCAAGAUCCCACAUGAGGAUCACCCAUGUGCUCGUCUUAUAAGGUACUGUGACGAAAGUCACGGUACC [Sensor 3, v1 - 83] (puzzle: Sensor v3, turn-off variant 1)			apparent KD of MS2 coat protein [2]: 36.8 nM; apparent KD of MS2 coat protein [3]: 1080 nM; apparent KD of MS2 coat protein [4]: 38 nM
UAUUAGCAAGCAAGAUCCCACAUGAGGAUCACCCAUGUGCUCGUCUUAUAAGGUACUGUGACGAAAGUCACGGUACC [Sensor 3, v1 - 95 v2] (Eterna round: R97, puzzle: Sensor, turn-off variant 1)	52.5 nM	45.4 nM	

Sequence	apparent KD of MS2 coat protein (input ligand: FMN 200 uM)	apparent KD of MS2 coat protein (input ligand: none)	other results
UAUUAGCAAGCAAGGUCCCACAUGAGGAUCACCCAUGUGCUCGUCUUAUAAGGUACUGUGACGAAAGUCACGGUACC [Sensor 3, v1 - 92] (puzzle: Sensor v3, turn-off variant 1)			apparent KD of MS2 coat protein [2]: 46.6 nM; apparent KD of MS2 coat protein [4]: 53.1 nM
UAUUAGCAAGCGAGAUCCCACAUGAGGAUCACCCAUGUAGCUCGUCUUAUAAAGGUUUCGACGAAAACGUCGAGACC [Eli 91 v27] (Eterna round: R97, puzzle: Sensor, turn-off variant 1)	17.5 nM	16.1 nM	
UAUUAGCAAGCGAGAUCCUACAUGAGGAUCACCCAUGUGCUCGUCUUGUAAGGUACUGUGACGAAAGUCACGGUACC [Eli 91 v38] (Eterna round: R97, puzzle: Sensor, turn-off variant 1)	16.5 nM	15.6 nM	
UAUUAGCAAGUAAGGUCCCACAUGAGGAUCACCCAUGUGCUCGUCUCCUCAGGUACGGAGCGGAAACUCCCGAUAUG [Sensor-V1 #92] (Eterna round: R97, puzzle: Sensor, turn-off variant 1)	121 nM	102 nM	
UAUUAGCAAGUGAGAUCCGACAUGAGGAUCACCCAUGUGCUCGUCUUAUAAGGUAAUAUAAGAAAACUUAUAUUACC [Elimod 6 - Jieux - Sensor, turn-off variant 1] (Eterna round: R97, puzzle: Sensor, turn-off variant 1)	207 nM	233 nM	
UAUUAGUAAGGAUAUGAGGCGUAGUACGAAAGUACUACGUCUCAGAAGGUACAUGAGGAUCACCCAUGUUCAUU [Mod of Fisker 4 - Jieux - Exclusion 4] (Eterna round: R97, puzzle: Exclusion 4)	19.9 nM	17.8 nM	
UAUUCACAUGAGGAUCACCCAUGUCAGGAUAUAGUCGAUAUAUGGAAACAUAUAUCGACUAGAAGGGACUAGCG [Jieuxxlusion 12 - Jieux - Exclusion 1] (Eterna round: R97, puzzle: Exclusion 1)	64.5 nM	47.4 nM	
UAUUCACAUGAGGAUCACCCAUGUCAGGAUAUGCUCGAUAUAUGGAAACAUAUAUCGAGCAGAAGGGACUAGCG [Jieuxxlusion 8 - Jieux - Exclusion 1] (Eterna round: R97, puzzle: Exclusion 1)	98.7 nM	41.2 nM	
UAUUCUAGAUAGGAUAUACUUUUUUUUUUUUUCGUAGAAGGAUCUACAUGAGGAUCACCCAUGUUUUCAGCAGU [JR_E6_Sub012] (Eterna round: R96, puzzle: Exclusion 6)	99.6 nM	71.1 nM	apparent KD of MS2 coat protein [1]: 65.7 nM
UAUUCUAGAUAGGAUAUACUUUUUUUUUUUUUCGUAGAAGGAUCUACAUGAGGAUCACCCAUGUUUUCAGCAGU [JR_E6_Sub012] (puzzle: Exclusion 6)			apparent KD of MS2 coat protein [3]: 48.3 nM
UAUUGUUUUUUUUUAAAUUACAUGAGGAUCACCCAUGUUUUUUUUUUUUUGGUGAUUAUUUUUUGUCUUUUUUUUUU [Jieuxbot 037 - Jieux - Sensor v2, turn-off variant] (Eterna round: R96, puzzle: Sensor v2, turn-off variant)	58.5 nM	43.3 nM	apparent KD of MS2 coat protein [1]: 69 nM
UCAAGAAUAGGAUAUACAACAUGCCCGCUUCUUUGCAUCGCACAUGAGGAUCACCCAUGUAGAAGGGUUCUCUA [Exclusion-2-#16] (Eterna round: R97, puzzle: Exclusion 2)	103 nM	151 nM	
UCAAGUAUGUAGGAUAUCGAUGUCUACGGACAUCGAGAAGGACGUACAUGAGGAUCACCCAUGUAACUUGCAUG [Exclusion 6 - B - 10:d] (Eterna round: R96, puzzle: Exclusion 6)	238 nM	283 nM	apparent KD of MS2 coat protein [1]: 144 nM
UCAAGUAUGUAGGAUAUCGAUGUCUACGGACAUCGAGAAGGACGUACAUGAGGAUCACCCAUGUAACUUGCAUG [Exclusion 6 - B - 10:d] (puzzle: Exclusion 6)			apparent KD of MS2 coat protein [2]: 37.2 nM; apparent KD of MS2 coat protein [3]: 79.4 nM; apparent KD of MS2 coat protein [4]: 108 nM
UCAAUACGGAAGGAUAUGCCGAAGCAUGCGCAGGCAGAAGGUCUGACAUGAGGAUCACCCAUGUUGGAGAUCAA [Eternabot (L2) Solution 21] (Eterna round: R97, puzzle: Exclusion 6)	82.1 nM	19.1 nM	
UCAGCUUGUGUCAGGAUAUCCAGUCCGACGGGAGAGGAGAAGGGACAUGAGGAUCACCCAUGUAGGCGCCCUAC [Soerrecege] (Eterna round: R97, puzzle: Brourd's mod of Exclusion 4)	63.8 nM	461 nM	
UCAGUUCUGCAAGGAUAUCGUCCUAGUUUGGUACGAGAAGGUGCUUUUGUUUUUUCCUUGUGUUGACAUGAGGAUCACCCAUGU [JL JR Sub53 mod] (Eterna round: R96, puzzle: Exclusion NG 1)			apparent KD of MS2 coat protein [1]: 28.4 nM
